Measured values: US10450368 (DUKE UNIVERSITY, dated 2019)

T1: SSB (UniProt P05455 1-408)
T1 sequence: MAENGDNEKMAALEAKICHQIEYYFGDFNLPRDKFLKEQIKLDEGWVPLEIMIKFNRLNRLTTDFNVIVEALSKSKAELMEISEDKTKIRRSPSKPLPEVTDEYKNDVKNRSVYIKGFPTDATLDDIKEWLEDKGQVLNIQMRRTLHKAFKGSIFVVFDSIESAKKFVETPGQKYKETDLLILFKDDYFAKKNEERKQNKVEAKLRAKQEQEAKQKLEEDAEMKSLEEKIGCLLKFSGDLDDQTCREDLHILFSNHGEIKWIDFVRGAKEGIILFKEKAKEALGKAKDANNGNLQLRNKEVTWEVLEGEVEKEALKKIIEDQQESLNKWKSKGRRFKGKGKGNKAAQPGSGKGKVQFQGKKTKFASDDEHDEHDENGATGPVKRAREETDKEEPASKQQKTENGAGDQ

T2: Scl-70 (UniProt P11387 1-765)
T2 sequence: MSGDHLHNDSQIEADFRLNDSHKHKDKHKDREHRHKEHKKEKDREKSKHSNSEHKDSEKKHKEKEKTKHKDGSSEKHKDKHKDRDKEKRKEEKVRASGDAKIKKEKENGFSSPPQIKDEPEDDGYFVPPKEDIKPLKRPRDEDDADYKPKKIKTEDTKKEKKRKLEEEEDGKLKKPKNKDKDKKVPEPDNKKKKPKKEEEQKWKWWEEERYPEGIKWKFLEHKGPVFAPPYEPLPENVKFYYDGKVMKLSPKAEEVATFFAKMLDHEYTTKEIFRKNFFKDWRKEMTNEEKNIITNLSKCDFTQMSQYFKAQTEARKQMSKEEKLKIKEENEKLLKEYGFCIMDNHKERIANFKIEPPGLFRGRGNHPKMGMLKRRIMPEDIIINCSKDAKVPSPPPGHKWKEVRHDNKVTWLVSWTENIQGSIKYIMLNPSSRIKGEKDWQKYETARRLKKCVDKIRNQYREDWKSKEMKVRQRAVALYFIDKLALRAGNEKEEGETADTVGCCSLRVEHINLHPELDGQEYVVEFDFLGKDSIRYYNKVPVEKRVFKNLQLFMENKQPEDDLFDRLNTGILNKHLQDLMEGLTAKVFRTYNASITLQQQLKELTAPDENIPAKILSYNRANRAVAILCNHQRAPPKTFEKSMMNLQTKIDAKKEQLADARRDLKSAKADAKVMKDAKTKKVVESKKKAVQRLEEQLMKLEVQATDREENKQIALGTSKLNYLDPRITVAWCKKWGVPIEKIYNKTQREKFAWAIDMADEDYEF

T3: Jo-1 (UniProt P12081 1-509)
T3 sequence: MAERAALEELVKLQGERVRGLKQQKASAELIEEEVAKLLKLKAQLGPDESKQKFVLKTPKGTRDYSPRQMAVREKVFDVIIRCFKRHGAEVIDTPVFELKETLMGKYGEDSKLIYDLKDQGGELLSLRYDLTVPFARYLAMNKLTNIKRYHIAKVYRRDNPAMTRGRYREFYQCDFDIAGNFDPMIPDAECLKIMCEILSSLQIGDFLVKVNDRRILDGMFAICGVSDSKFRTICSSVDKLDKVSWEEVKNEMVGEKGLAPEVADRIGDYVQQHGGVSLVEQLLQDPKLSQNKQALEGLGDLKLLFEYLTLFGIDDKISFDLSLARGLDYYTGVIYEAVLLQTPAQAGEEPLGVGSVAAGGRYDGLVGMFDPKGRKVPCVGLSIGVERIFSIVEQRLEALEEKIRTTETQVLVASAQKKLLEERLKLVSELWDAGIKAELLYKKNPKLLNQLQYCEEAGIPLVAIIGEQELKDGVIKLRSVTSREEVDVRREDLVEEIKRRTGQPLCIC

B1: CH241 (antibody, V domains shown)
VH: QVQLVQSGAAVKKPGASVRVSCKASGYTFTSSHIHWVRQAPGQGPEWMGMIDPSVGRPTTAGKFQGRVTMTRDRYTSTAYMDLSSLRSEDTAVYYCARSVETTGSLLYFDYWGQGTLITVSS
VL: EIVLTQSPATLSVSPGERATLSCRASQSVRSNIAWYQQKPGQAPRLLIHGASTRATGIPGRFSGSGSGPEFTLAISSVQSEDFAVYYCQQYNDWWTFGQGTKVEIK
B2: CH235 (antibody, V domains shown)
VH: QVQLVQSGAEVKKPGASVTVSCQASGYTFTNYYVHWVRQAPGQGLQLMGWIDPSWGRTNYAQNFQGRITMTRDTSTSTVYMEMRSLRSEDTAVYYCARNVATEGSLLHYDYWGQGTLVTVSA
VL: EIVLTQSPATLSVSPGERATLSCRASQSVRSNLAWYQQRPGQAPRLLIYGTSTRATGVPARFSGRGSGTEFTLAISSMQSEDFAVYLCLQYNNWWTFGQGTKVEIK
notes: also called CH235_4A
B3: CH493 (antibody, V domains shown)
VH: QVRLLQYGGGVKRPGASMTISCVASGYNFNDYYIHWVRQAPGQGLELMGWIDPSGGRTDYAGAFGDRVSMYRDKSMNTLYMDLRSLRSGDTAMYYCVRNVGTAGSLLHYDHWGLGVMVTVSS
VL: EIVLTQSPATLSVSPGERVTLSCRASQSVRNNLAWYRQKRGQAPRLLIYGASTRATGIPARFSGSGSGTEFTLTISSMQSEDFAVYYCQQYNNWWTFGQGTKVEIK
notes: also called CH235.9; DH493
B4: CH557 (antibody, V domains shown)
VH: QVRLAQYGGGVKRLGATMTLSCVASGYTFNDYYIHWVRQAPGQGFELLGYIDPANGRPDYAGALRERLSFYRDKSMETLYMDLRSLRYDDTAMYYCVRNVGTAGSLLHYDHWGSGSPVIVSS
VL: EIVLTQSPATLSASPGERVTLTCRASRSVRNNVAWYQHKGGQSPRLLIYDASTRAAGVPARFSGSASGTEFTLAISNLESEDFTVYFCLQYNNWWTFGQGTRVDIK
notes: also called CH235.12; CH557_4A/293i

target: T4, CH505w030.20D8gp120/293F; test: ELISA
T4 construct: also called CH505w30.20 gp120

**Q.** For B1, which LogAUC is on record?
**A.** 8.03

**Q.** How did the LogAUC turn out when B2 was run?
**A.** 8.33

**Q.** B3 was tested. Which LogAUC did it give?
**A.** 8.09

**Q.** For B4, which LogAUC is on record?
**A.** 8.59

target: T5, CH505.w30.12D8gp120; test: ELISA
T5 construct: also called CH505w30.12 gp120

**Q.** B1 was tested. Which LogAUC did it give?
**A.** 9.6

**Q.** B2 was tested. Which LogAUC did it give?
**A.** 7.28

**Q.** How did the LogAUC turn out when B3 was run?
**A.** 3.17

**Q.** Which LogAUC does the source give for B4 here?
**A.** 2.37

target: CH505.M19D8gp120; test: ELISA

**Q.** B1 was tested. Which LogAUC did it give?
**A.** 10.4

**Q.** B2 was tested. Which LogAUC did it give?
**A.** 7.13

**Q.** B3 was tested. Which LogAUC did it give?
**A.** 5.95

**Q.** With B4 as the binder, how does the LogAUC read?
**A.** 4.61

target: CH505.M7D8gp120/293F; test: ELISA

**Q.** Which LogAUC does the source give for B1 here?
**A.** 0

**Q.** B2 was tested. Which LogAUC did it give?
**A.** 0

**Q.** Which LogAUC does the source give for B3 here?
**A.** 0.8

**Q.** B4 was tested. Which LogAUC did it give?
**A.** 0.69

target: CH505.M10D8gp120; test: ELISA

**Q.** B1 was tested. Which LogAUC did it give?
**A.** 14.4

**Q.** With B2 as the binder, how does the LogAUC read?
**A.** 10.6

**Q.** How did the LogAUC turn out when B3 was run?
**A.** 10.2

**Q.** With B4 as the binder, how does the LogAUC read?
**A.** 7.63

target: CH505.M21D8gp120/293F; test: ELISA

**Q.** B1 was tested. Which LogAUC did it give?
**A.** 4.82

**Q.** Which LogAUC does the source give for B2 here?
**A.** 0

**Q.** B3 was tested. Which LogAUC did it give?
**A.** 1.13

**Q.** Which LogAUC does the source give for B4 here?
**A.** 0.19

target: CH505.M11D8gp120/293F; test: ELISA

**Q.** With B1 as the binder, how does the LogAUC read?
**A.** 9.68

**Q.** For B2, which LogAUC is on record?
**A.** 7.59

**Q.** With B3 as the binder, how does the LogAUC read?
**A.** 8.26

**Q.** With B4 as the binder, how does the LogAUC read?
**A.** 7.71

target: CH505.M5D8gp120293F; test: ELISA

**Q.** With B1 as the binder, how does the LogAUC read?
**A.** 14.5

**Q.** For B2, which LogAUC is on record?
**A.** 11.4

**Q.** Which LogAUC does the source give for B3 here?
**A.** 9.26

**Q.** B4 was tested. Which LogAUC did it give?
**A.** 8.2

target: T6, CH505.TF mutant gp120 M20 (HIV-1); test: ELISA
T6 construct: domain: gp120

**Q.** With B1 as the binder, how does the LogAUC read?
**A.** 2.15

**Q.** How did the LogAUC turn out when B2 was run?
**A.** 0

**Q.** Which LogAUC does the source give for B3 here?
**A.** 1.04

**Q.** Which LogAUC does the source give for B4 here?
**A.** 0

target: T7, CH505.TF mutant gp120 M8 (HIV-1); test: ELISA
T7 construct: domain: gp120

**Q.** Which LogAUC does the source give for B1 here?
**A.** 2.18

**Q.** Which LogAUC does the source give for B2 here?
**A.** 0

**Q.** With B3 as the binder, how does the LogAUC read?
**A.** 4.36

**Q.** B4 was tested. Which LogAUC did it give?
**A.** 1.14

target: T8, CH505.TF mutant gp120 M6 (HIV-1); test: ELISA
T8 construct: domain: gp120

**Q.** With B1 as the binder, how does the LogAUC read?
**A.** 13.2

**Q.** How did the LogAUC turn out when B2 was run?
**A.** 9.46

**Q.** For B3, which LogAUC is on record?
**A.** 8.11

**Q.** How did the LogAUC turn out when B4 was run?
**A.** 8.21

target: CH505.M9D8gp120/293F; test: ELISA

**Q.** With B1 as the binder, how does the LogAUC read?
**A.** 0

**Q.** For B2, which LogAUC is on record?
**A.** 0

**Q.** B3 was tested. Which LogAUC did it give?
**A.** 1.31

**Q.** For B4, which LogAUC is on record?
**A.** 0.38

target: T9, RNP (ribonucleoprotein); test: AtheNA, Ab 6.25 ug/ml
T9 construct: Protein-RNA complex

**Q.** With B1 as the binder, how does the AtheNA signal read?
**A.** 3 relative luminescence units

**Q.** For B2, which AtheNA signal is on record?
**A.** 3 relative luminescence units

target: T10, Sm (Smith antigen); test: AtheNA, Ab 6.25 ug/ml
T10 construct: Protein complex

**Q.** For B1, which AtheNA signal is on record?
**A.** 4 relative luminescence units

**Q.** For B2, which AtheNA signal is on record?
**A.** 5 relative luminescence units

target: T1, SSB; test: AtheNA, Ab 6.25 ug/ml

**Q.** With B1 as the binder, how does the AtheNA signal read?
**A.** 4 relative luminescence units

**Q.** With B2 as the binder, how does the AtheNA signal read?
**A.** 6 relative luminescence units

target: T11, SSA; test: AtheNA, Ab 6.25 ug/ml
T11 construct: also called SSA (Ro)

**Q.** For B1, which AtheNA signal is on record?
**A.** 15 relative luminescence units

**Q.** How did the AtheNA signal turn out when B2 was run?
**A.** 12 relative luminescence units

target: CH505w136.B18D8gp120; test: ELISA

**Q.** Which LogAUC does the source give for B1 here?
**A.** 0.89

**Q.** With B2 as the binder, how does the LogAUC read?
**A.** 7.53

**Q.** With B3 as the binder, how does the LogAUC read?
**A.** 5.76

**Q.** Which LogAUC does the source give for B4 here?
**A.** 8.31

target: T2, Scl-70; test: ELISA, LogAUC grade

**Q.** Does B1 bind?
**A.** no binding

**Q.** Does B2 bind?
**A.** no binding

**Q.** Does B4 bind?
**A.** no binding

target: T1, SSB; test: ELISA, LogAUC grade

**Q.** Does B1 bind?
**A.** no binding

**Q.** Does B2 bind?
**A.** no binding

**Q.** Does B4 bind?
**A.** no binding

target: T3, Jo-1; test: ELISA, LogAUC grade

**Q.** Does B1 bind?
**A.** no binding

**Q.** Does B2 bind?
**A.** no binding

**Q.** Does B4 bind?
**A.** no binding

target: CH0505_CON D7gp120/293i; test: ELISA

**Q.** How did the LogAUC turn out when B1 was run?
**A.** 13.3

**Q.** For B2, which LogAUC is on record?
**A.** 9.73

**Q.** Which LogAUC does the source give for B3 here?
**A.** 8.67

**Q.** Which LogAUC does the source give for B4 here?
**A.** 8.39

target: T12, CH505w020.14D8gp120; test: ELISA
T12 construct: also called CH505w20.14 gp120

**Q.** B1 was tested. Which LogAUC did it give?
**A.** 13.1

**Q.** For B2, which LogAUC is on record?
**A.** 9.91

**Q.** How did the LogAUC turn out when B3 was run?
**A.** 8.15

**Q.** With B4 as the binder, how does the LogAUC read?
**A.** 8.33
